Literature values in US20070178561A1, “Anti-hiv-1 compounds based upon a conserved amino acid sequence shared by gp160 and the human cd4 protein” (priority 2003, published 2007).

Key:
gp160 = gp160 (Human immunodeficiency virus type 1 group M subtype B, UniProt P04578); conditions: Jiang et al., Nature 365:113, 1993
HIV-1 = conditions: in vitro viral cell growth assays using p24

TNWLWYIKLFIMIVGGLVGLRIVFAKKKC [683-707KKKC]
binding to gp160 (gp160): bound gp160 | inhibition of viral growth (p24) (HIV-1): does not inhibit viral growth
